Measured values: patent US20040214349A1 (MURDOCH CHILDRENS RESEARCH INSTITUTE ROYAL CHILDREN S …, published 2004)

Biological target: the molecule itself
Test: non-reducing SDS-PAGE of immunoprecipitated His-WARP

B1: His-tagged full-length mouse WARP expressed in 293-EBNA cells (other)
chain: RSSHHHHHHIERGSTASDPQGDLLFLLDSSASVSHYEFSRVREFVGQLVATMSFGPGALRASLVHVGSQPHTEFTFDQYSSGQAIRDAIRVAPQRMGDTNTGLALAYAKEQLFAEEAGARPGVPKVLVWVTDGGSSDPVGPPMQELKDLGVTIFIVSTGRGNLLELLAAASAPAEKHLHFVDVDDLPIIARELRGSITDAMQPQQLHASEVLSSGFRLSWPPLLTADSGYYVLELVPSGKLATTRRQQLPGNATSWTWTDLDPDTDYEVSLLPESNVHLLRPQHVRVRTLQEEAGPERIVISHARPRSLRVSWAPALGPDSALGYHVQLGPLQGGSLERVEVPAGQNSTTVQGLTPCTTYLVTVTAAFRSGRQRALSAKACTASGARTRAPQSMRPEAGPREP
modifications: N-linked oligosaccharide (one or more; candidate sites Asn264 and Asn359)
notes: also called His-WARP; WARP-His
binding result: binds
